Measured values taken from article PMC7729032, “Interaction interface in the C-terminal parts of centriole proteins Sas6 and Ana2” (Open Biology, 2020).

Target: T1, MBP-Sas6 wild-type (Drosophila, UniProt Q9VAC8 1-472)
T1 construct: Sas6, Drosophila, wild type; MBP from destination vector pKM596 (Gateway); No cleavage of MBP is described; also called Sas6-wt; source: E. coli Rosetta(DE3); in lysate (pull-down); purified on amylose resin and SEC (SEC, HDX-MS)
T1 sequence (looked up): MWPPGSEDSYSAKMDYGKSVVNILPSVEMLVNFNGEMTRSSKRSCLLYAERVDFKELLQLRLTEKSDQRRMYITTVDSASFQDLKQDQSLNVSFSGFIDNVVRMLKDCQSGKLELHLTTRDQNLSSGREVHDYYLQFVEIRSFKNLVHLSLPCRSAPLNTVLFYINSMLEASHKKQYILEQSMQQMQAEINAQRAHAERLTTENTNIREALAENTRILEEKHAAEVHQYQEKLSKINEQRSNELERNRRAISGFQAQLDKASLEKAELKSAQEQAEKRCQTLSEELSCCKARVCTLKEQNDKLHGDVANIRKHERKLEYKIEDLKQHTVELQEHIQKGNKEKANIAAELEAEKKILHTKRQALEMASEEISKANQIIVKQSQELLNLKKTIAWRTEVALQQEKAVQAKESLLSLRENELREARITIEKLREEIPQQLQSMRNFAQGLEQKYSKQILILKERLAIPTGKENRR
Test: SEC; MBP-Ana2-4D mixed with MBP-Sas6, at least 1 h on ice, Superdex 200 10/300; 20 mM Tris–HCl pH 7.5, 150 mM NaCl, 1 mM DTT, 4°C
Details: both partners purified

B1: MBP-Ana2-4D (natural protein, Drosophila, UniProt Q9XZ31 1-420, looked up)
chain: MFVPETEDMLPRLAPRPSAAVPMGHTNEIIGPTVPEVSILFGQPPQDPQMQPQQPNHAHQESSPRAAPTFASWKKQMLPRVNFSPILATELGPRTAPSSNSPCSSKEYQVMPRDRNYASDAQQTTNHMNCNAGGYNAEPKQQAYQSRRLSSSSNADVLTICAGTQTDPFNPSPPRKSLPQVVYSDIDVSNLANKSDLAALVSLVESVRHEQQQLRNLCEMILEQQQRAKPEAISKASSTTGTQCDILTTNQAGRRLSPIMQDYIAEEEEPLPPPQARVIPQFPSPRPHPPIAQSTGYRANTPQAKRIPQLAKPNTEKDMVMNELALKYLRQPVDELMKDMRLGASPKSPNPEPLRPIDNIGHAQDPNDIDNADYKYLKKYRLLPEEQLEPVCPQSPMAATAPSPHIQLDLENIRNQPKLL
notes: Ana2, Drosophila; STAN motif serines 318, 365, 370 and 373 substituted by aspartic acid; MBP from destination vector pKM596; As prey against Gorab bait the MBP tag follows from the general methods of the pull-down; also called Ana2-4D-FL; source: E. coli Rosetta(DE3); purified on amylose resin and SEC (SEC, HDX-MS); in lysate (pull-down prey)
  binding result: binds
